In patent publication US7704703B2, “Arf and Hdm2 interaction domains and the methods of use thereof” (St. Jude Children's Research Hospital, Inc., priority 2002, dated 2010):
Entries after “also recorded” stand apart in the source; their conditions may differ.

What was measured:
Hdm2 210-275 = biological target: T1, Hdm2 210-275 (Homo sapiens, UniProt Q00987); assay: CD-based binding assay, induction of β-strand secondary structure with Hdm2 210-275
T1 construct: poly-His (thrombin cleavable, pET28a) (cleaved yes); made in house; host or cells: E. coli BL21(DE3)
T1 sequence (Q00987 210-275): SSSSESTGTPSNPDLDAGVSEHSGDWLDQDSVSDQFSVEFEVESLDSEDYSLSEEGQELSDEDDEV
Protocol: Circular Dichroism. Spectra were recorded at 25° C. using an Aviv Model 62A DS circular dichroism spectropolarimeter (Aviv Instruments, Inc.) equipped with a thermoelectric temperature control unit. All samples were prepared in 10 mM Tris-HCl, pH 7.0 at 0.02-0.2 mM as determined by amino acid analysis. Spectra were recorded using 1 mm quartz cuvettes and reported spectra are the average of 10 scans over the range […]. Melting experiments were recorded in 10 mm quartz cuvettes with active stirring. The signal at 216 nm (β strand minimum) was used to monitor structural changes and the signal was averaged over 15 sec. The sample temperature was increased in 1° C. steps.
β-strand secondary structure forms when Arf and Hdm2 interact. […] This structural transition is induced when mArfN37 is added to an Hdm2 fragment and when an Hdm2 fragment is added to mArfN37. […] In contrast, the uncomplexed species elute at times consistent with monodisperse, conformationally extended polypeptides. Second, NMR resonances for ^15N-mArfN37 or ^15N-Hdm2 210-304 (and ^15N-Hdm2 210-275) are broadened beyond detection when an unlabeled form of the appropriate binding partner is added to the solution. At mArfN37:Hdm2 210-304 (or mArfN37:Hdm2 210-275) molar ratios that produce maximal β-strand secondary structure based on ellipticity at 200 nm using CD, resonances cannot be observed for the isotope-labeled component of Arf/Hdm2 mixtures. Further, the NMR spectra are consistent with slow exchange between the free and bound states.
Characterization of Arf Hdm2 assemblies. As discussed above, the addition of mArfN37 to Hdm2 210-304 results in the formation of supramolecular assemblies comprised of β-strands. Stepwise addition of sub-stoichiometric amounts of mArfN37 to Hdm2 210-304 increased β-strand secondary structure content as judged by the change in ellipticity at 200 nm using CD. […] The binding of mArfN37 to Hdm2 210-304, as monitored in this way, is saturable. Similar results were obtained when mArfN37 was mixed with the shorter fragment of Hdm2, Hdm2 210-275. Further, saturable binding is also observed when the Hdm2 fragments were added to an excess of mArfN37. These findings indicate that there are a limited number of binding sites for mArfN37 within Hdm2 210-304 and that discreet structures (containing β-strands) form when mArfN37 and Hdm2 210-304 (or 210-275) are mixed. […] Similar behavior is observed when mArfN37 binds Hdm2 210-275.

GFP-p19^Arf = biological target: T2, GFP-p19^Arf (Mus musculus, UniProt Q64364); assay: Microinjection and live cell imaging of Texas Red labeled Hdm2 constructs in NIH 3T3 cells lacking Arf; assay type: cell-based; details: for localization after nuclear microinjection in the presence of GFP-p19^Arf: transfected with GFP-p19^Arf
T2 construct: expressed in transfected cells; host or cells: NIH 3T3 Arf-/- cells
T2 sequence (Q64364 1-169): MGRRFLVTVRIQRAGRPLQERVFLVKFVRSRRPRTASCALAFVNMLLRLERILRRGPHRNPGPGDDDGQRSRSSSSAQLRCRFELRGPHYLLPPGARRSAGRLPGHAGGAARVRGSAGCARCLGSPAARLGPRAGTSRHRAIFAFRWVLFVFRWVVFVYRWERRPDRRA
Protocol: Fluorescent labeling. Proteins for fluorescence microimaging studies were covalently modified using an amine-reactive, sulfosuccinimidyl ester of TEXAS RED® (C31H29S2N2O6Cl1) (Molecular Probes, Inc., Cat. # C-1171). In brief, purified Hdm2-derived proteins were dialyzed into 100 mM sodium bicarbonate buffer, pH 8.3 at 2-4 mg/ml. The Texas Red™ dye was dissolved in dimethylsulfoxide at 10 mg/ml. Protein and dye 3:1 (vol:vol) were reacted for 1 hour at room temperature followed by purification using size-exclusion chromatography (NAP 5 G-25 columns, Amersham Pharmacia Biotech, Inc.). Labeled protein bands migrated more slowly than unlabeled protein in SDS-polyacrylamide gels consistent with the covalent attachment of dye.
Cell culture and microinjection. NIH 3T3 Arf^−/− cells passage 10-15 were cultured in Dulbecco's modified Eagle's medium (Dulbecco's modified Eagle's medium (DMEM); Gibco-Invitrogen, Inc.), 10% fetal bovine serum (FBS) at 37° C., 7% CO2. […] GFP-Arf positive cells were then located and co-injected with TEXAS RED® (C31H29S2N2O6C1 labeled Hdm2 polypeptides (2 mg/ml in 20 mM Tris-HCl, 100 mM NaCl, pH 7.0) using a Micromanipulator 5171/Transjector 5246 (Eppendorf, AG) in media supplemented with 10 mM HEPES, pH 7.2 to buffer cell media during injection and imaging. Representative cells were imaged over time. An Axiovert 135 TV inverted fluorescence microscope with an automated stage controller (Carl Zeiss, Inc.) and circulating water bath heater (Fisher) was used for both microinjection and imaging. Images were acquired with a Zeiss 40×NA=1.30 oil objective and MicroMax CCD camera (Princeton Instruments Inc.) operated with MetaMorph Version 4.01 imaging software. […]
TEXAS RED® (C31H29S2N2O6Cl1) labeled Hdm2 deletion constructs containing residues 210-275, 210-304, 277-350 and 277-491 were individually injected into cells in the absence or presence of the GFP-p19^Arf fusion protein. […] The use of live cell imaging also allowed the kinetics of localization to be monitored. […]

mArfN37 = biological target: T3, mArfN37 (Mus musculus, UniProt Q64364); assay: Surface plasmon resonance: Hdm2 fragments and peptides binding to immobilized His-tagged mArfN37
T3 construct: mouse p19^Arf corresponding to residues 1-37 (mArfN37); made in house; host or cells: E. coli BL21(DE3) (purified 'in a similar manner' to the Hdm2 fragments)
T3 sequence (Q64364 1-37 limits assumed): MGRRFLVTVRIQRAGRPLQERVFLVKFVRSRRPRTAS
Protocol: Surface Plasmon Resonance. Binding studies were performed using a Biacore 3000 surface plasmon resonance (SPR) instrument (Biacore, Inc.). A Tetra-His™ Antibody (Qiagen, Inc.; Cat. #34670) was covalently attached to a carboxymethylated gold surface (C-1 chip; Biacore, Inc.). The carboxymethyl groups on the surface were activated with N-ethyl-N′-(3-dimethylaminopropyl) carbodiimide (EDC) and N-hydroxysuccinimide (NHS) and the antibody was attached at pH 7.4 in 20 mM sodium phosphate buffer, 150 mM NaCl (PBS). Reactive sites remaining on the surface were blocked by reaction with ethanolamine. […] Binding was measured by flowing the non-His-tagged analyte through the reference and ligand-containing flow cells in sequence. […] Changes in the SPR response due to solvent differences and the injection process were monitored by injection of HBS-N buffer alone. […]
Small segments of Arf and Hdm2 participate in Arf/Hdm2 interactions. […] However, because mArfN37 is a relatively small polypeptide, it was determined whether it could bind a correspondingly small segment of Hdm2. To test this hypothesis and to monitor Arf/Hdm2 binding reactions quantitatively, Hdm2 constructs were prepared spanning amino acids 210-304 of SEQ ID NO:8 and 210-275 of SEQ ID NO:8 and then it was determined whether they could bind mArfN37 using surface plasmon resonance (SPR). […]

Q: With “mouse A2 (16-30): peptide corresponding to the second mouse Arf motif, residues 16-30 (RPLQERVFLVKFVRS)” as the substance, how does the “induction of β-strand secondary structure/assembly when mixed with Hdm2 210-275 (CD)” value (Hdm2 210-275) read?
A: fail to induce β-strand assembly

Q: “Hdm2 277-491: Texas Red labeled Hdm2 deletion construct containing residues 277-491” was tested. Which “localization after nuclear microinjection in the presence of GFP-p19^Arf” value (GFP-p19^Arf) did it give?
A: nucleolar localization

Q: What does the source list for “Hdm2 210-304: Arf-binding domain of Hdm2, amino acids 210-304 of SEQ ID NO:8”?
A: binding of Hdm2 fragment to His-tagged mArfN37 immobilized on SPR biosensor surface (mArfN37; Hdm2 protein fragments as analyte, no binding to control surface): bind tightly; localization after nuclear microinjection in the absence of Arf (GFP-p19^Arf; no GFP-p19^Arf): evenly dispersed in the nucleoplasm; localization after nuclear microinjection in the presence of GFP-p19^Arf (GFP-p19^Arf): co-localized within nucleoli; also recorded: nucleolar localization

Q: How did the “relative affinity of Hdm2 synthetic peptides for mArfN37 (SPR)” value (mArfN37; 15 amino acid peptides of the central region of Hdm2) turn out when “peptide containing residues 290-304: short synthetic Hdm2 peptide, residues 290-304 of SEQ ID NO:8 (SFEEDPEISLADYWK; listed as Homo sapiens)” was run?
A: modest affinity

Q: With “MVRRFLVTLRIRRA (listed as Homo sapiens) [human A1 (1-14), peptide of the first Arf motif of human p14^Arf, residues 1-14]” as the substance, how does the “induction of β-strand secondary structure/assembly when mixed with Hdm2 210-275 (CD)” value (Hdm2 210-275) read?
A: interaction

Q: “human A2 (16-30): peptide containing the second human Arf motif, residues 16-30 (GPPRVRVFVVHIPRL)” was tested. Which “induction of β-strand secondary structure/assembly when mixed with Hdm2 210-275 (CD)” value (Hdm2 210-275) did it give?
A: fail to induce β-strand assembly

Q: “mouse A1 (1-14): peptide corresponding to the first mouse Arf motif, residues 1-14 (MGRRFLVTVRIQRA)” was tested. Which “induction of β-strand secondary structure/assembly when mixed with Hdm2 210-275 (CD)” value (Hdm2 210-275) did it give?
A: interaction
